For the data set, the target named is lysozyme (chicken (egg white), UniProt P00698 19-147). The data set is described as follows: single-molecule FRET (aptamer displacement); H1 helper strand 1 uM, 10 mM Mg2+; detection limit 30 nM, dynamic range to ~2 uM (not a Kd); 1x TAE-Mg: 40 mM Tris, 20 mM acetic acid, 1 mM EDTA, 10 mM Mg2+, pH 7.4; 1 uM H1 in imaging solution; temperature not stated. To be noted: protein: commercial; label: 3' Cy3 on Cy3 strand; 5' Cy5 on Cy5 strand; partially double-stranded multi-strand assembly; 15 nt of aptamer strand (6 extension + 9 aptamer) paired with B1; lysozyme displaces the aptamer strand.
lysozyme, sequence (P00698 19-147): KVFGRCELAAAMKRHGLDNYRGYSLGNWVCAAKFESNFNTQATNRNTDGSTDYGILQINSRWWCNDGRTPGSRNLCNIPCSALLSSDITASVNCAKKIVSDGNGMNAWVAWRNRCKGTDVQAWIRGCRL

B1: lysozyme aptasensor (aptamer annealed to B1, Cy5, top and Cy3 strands) (mixed)
DNA 1: ACTGTCATCAGGGCTAAAGAGTGCAGAGTTACTTAG
DNA 2: AGCCCTGATGACAGTAATATAATTCTATA
DNA 3: TATAGAATTATATTATATTACGAGTAGTGAGTTCCA
DNA 4: ATCAGAAGCTCTC
DNA 5: TGGAACTCACTACTCGATTAGTGTATGACCTCTATATGAGAGCTTCTGAT
modifications: 5' biotin-TEG on Cy3 strand
In the case of B1, the binding result is “binds”.

These data come from paper PMC7038949, “FRET-Based Aptasensor for the Selective and Sensitive Detection of Lysozyme”.
